Targets include HLA-DRB1*0301 (human); HLA-DRB1*0401 (human); HLA-DRB1*0101 (human); HLA-DRB1*1101 (human); HLA-DRB1*1501 (human); HLA-DRB1*1301 (human); HLA-DRB1*0701 (human); HLA-DRB3*0101 (human).
Test in all cases: competition binding
What all share (details): modification not given

The source of these data is US20110038881A1, “PROGNOSTIC ASSAY FOR DETERMINING T CELL RESPONSE TO HLA ANTIGENS AND USE THEREOF IN FIELD OF TISSUE TRANSPLANTATION” (priority 2007, published 2011).

A value given as a limit tells only on which side of the number the result lay.

For LSFYPAEITLTWQRD [p41], the IC50 with HLA-DRB1*0301 (human) was more than 100 µM; with HLA-DRB1*0401 (human), 0.917 µM; in the test with HLA-DRB1*0101 (human), 0.05 µM; in the test with HLA-DRB1*1101 (human) it was 2.35 µM; with HLA-DRB1*1501 (human), more than 100 µM; with HLA-DRB1*1301 (human), more than 100 µM. The molecule also yielded an IC50 in the test with HLA-DRB1*0701 (human) of more than 100 µM.
In the case of AAVVVPSGQEQRYTC [p47], the IC50 with HLA-DRB1*0301 (human) was 0.98 µM; with HLA-DRB1*0401 (human), more than 100 µM; in the test with HLA-DRB1*0101 (human), 2.24 µM; in the test with HLA-DRB3*0101 (human), 1.53 µM; in the test with HLA-DRB1*1101 (human) it was 68.9 µM; with HLA-DRB1*1501 (human) it was more than 100 µM. In addition, the IC50 with HLA-DRB1*1301 (human) stood at 7.48 µM; with HLA-DRB1*0701 (human), 42.2 µM.
EQLRAYLEGTCVEWL [p32]: the IC50 with HLA-DRB1*0301 (human) was 1.84 µM; with HLA-DRB1*0401 (human), 1.73 µM; with HLA-DRB1*0101 (human), 0.063 µM; in the test with HLA-DRB3*0101 (human), 1.09 µM; in the test with HLA-DRB1*1101 (human) it was 0.424 µM; with HLA-DRB1*1501 (human) it was 0.267 µM. Also, the IC50 is more than 100 µM with HLA-DRB1*1301 (human) and 0.149 µM with HLA-DRB1*0701 (human).
As for TELVETRPAGDGTFQ [p44], the half-maximal inhibitory concentration (IC50) with HLA-DRB1*0301 (human) was more than 100 µM; with HLA-DRB1*0401 (human) it was 70.4 µM; with HLA-DRB1*0101 (human) it was 4.47 µM; with HLA-DRB1*1101 (human), 8.75 µM; with HLA-DRB1*1501 (human) it was more than 100 µM; with HLA-DRB1*1301 (human), more than 100 µM. Further, the half-maximal inhibitory concentration (IC50) in the test with HLA-DRB1*0701 (human) turned out to be 2.16 µM.
As to AHVAEQLRAYLEGTC [p31], the IC50 in the test with HLA-DRB1*0301 (human) is more than 100 µM; in the test with HLA-DRB1*0401 (human) it was more than 100 µM; with HLA-DRB1*0101 (human) it was 0.629 µM; in the test with HLA-DRB1*1101 (human), 3.34 µM; with HLA-DRB1*1501 (human) it was 0.026 µM; in the test with HLA-DRB1*1301 (human), 8.06 µM. The molecule further registered an IC50 with HLA-DRB1*0701 (human) of more than 100 µM.
Regarding ETLQRTDAPKTHMTH [p37], the IC50 with HLA-DRB1*0301 (human) is more than 100 µM; with HLA-DRB1*0401 (human) it was 60 µM; in the test with HLA-DRB1*0101 (human), 2 µM; with HLA-DRB3*0101 (human), 27.6 µM; in the test with HLA-DRB1*1101 (human), more than 100 µM; in the test with HLA-DRB1*1501 (human) it was more than 100 µM. The values for the IC50 with HLA-DRB1*1301 (human) and with HLA-DRB1*0701 (human) were more than 100 µM and 3.13 µM, respectively.
Regarding IPIVGIIAGLVLFGA [p53*], the IC50 with HLA-DRB1*0401 (human) was more than 100 µM; in the test with HLA-DRB1*0101 (human) it was 0.026 µM; with HLA-DRB1*1101 (human), more than 100 µM; in the test with HLA-DRB1*1501 (human) it was 0.283 µM; in the test with HLA-DRB1*1301 (human), 1.37 µM; with HLA-DRB1*0701 (human) it was 0.179 µM.
Take VEWLRRYLENGKETL [p35*]: the IC50 is more than 100 µM with HLA-DRB1*0301 (human); more than 100 µM with HLA-DRB1*0401 (human); 0.598 µM in the test with HLA-DRB1*0101 (human); 0.251 µM with HLA-DRB1*1101 (human); 0.245 µM with HLA-DRB1*1501 (human); 8.06 µM with HLA-DRB1*1301 (human). In the test with HLA-DRB1*0701 (human), this molecule gave an IC50 of more than 100 µM.
As to GTFQKWAAVVVPSGQ [p45*], the IC50 with HLA-DRB1*0301 (human) was more than 100 µM; in the test with HLA-DRB1*0401 (human), 0.099 µM; in the test with HLA-DRB1*0101 (human) it was 0.004 µM; with HLA-DRB3*0101 (human), 0.045 µM; with HLA-DRB1*1101 (human), 0.34 µM; with HLA-DRB1*1501 (human), 0.474 µM. The same molecule gave an IC50 in the test with HLA-DRB1*1301 (human) of more than 100 µM.
On to THMTHHAVSDHEATL [p38], for which the IC50 with HLA-DRB1*0301 (human) is more than 100 µM; in the test with HLA-DRB1*0401 (human), more than 100 µM; with HLA-DRB1*0101 (human), 8 µM; with HLA-DRB1*1101 (human), more than 100 µM; with HLA-DRB1*1501 (human), more than 100 µM; with HLA-DRB1*1301 (human), more than 100 µM. In the test with HLA-DRB1*0701 (human), this molecule showed an IC50 of 53.7 µM.
